Experimental data: US20220267750A1 (Merck KGaA, published 2022)

Target: GP41-1 C-intein-thioredoxin fusion protein (CINT_TRX)
Experiment: cell-based or functional assay

catalytic rate (cleavage rate): ~3 fold of the parent construct NINTΔA_CC
B1: GP41-1 N-intein variant NINTΔA_TM fused with solubilization partner 138 (other)
chain: MTRSGYALDLKTQVQTPQGMKEISNIQVGDLVLSNTGYNEVLNVFPKSKKKSYKITLEDGKEIITSEEHLFPTQTGEMNISGGLKEGMMLYVKEGGMNKDEAGGNWKQFKGKVKEQWGKLTDDDMTIIEGKRDQLVGKIQERYGYQKDQAEKEVVDWETRNEYRW
